B1: LcrV with a deletion of the N-terminal domain (domain or fragment)
chain: SKLREELAELTAELKIYSVIQAEINKHLSSGGTINIHDKSINLMDKNLYGYTDEEIFKASAEYKILEKMPQTTIQEGETEKKIVSIKNFLESEKKRTGALGNLKDSYSYNKDNNELSHFATTCSDKSRPLNDLVSQKTTQLSDITSRFNSAIEALNRFIQKYDSVMQRLLDDTSGK
B2: LcrG, full length (natural protein)
chain: MKSSHFDEYDKTLKQAELAIADSDHRAKLLQEMCADIGLTPEAVMKIFAGRSAEEIKPAERELLDEIKRQRERQPQHPYDGKRPRKPTMMRGQII

Assays:
[1] = biological target: the molecule itself; assay: […]; 50 mM NaCl, 30 mM phosphate buffer, 1 mM TCEP
LcrV, full length = LcrV, full length (Yersinia pseudotuberculosis, UniProt P23994 1-326); assay: ITC; conditions: both partners purified
[2] = biological target: LcrV with a deletion of the N-terminal 23 residues (Yersinia pseudotuberculosis, UniProt P23994 24-326); assay: ITC; […] ([…]) […] ([…]) […]; 25°C; 30 mM phosphate buffer, 50 mM NaCl, 1 mM TCEP, pH 7.0; conditions: both partners purified
[3] = biological target: B1; assay: as above; conditions: both partners purified

Binder | stoichiometry N [1] | Kd (LcrV, full length) | Kd [2] | Kd [3]
B1 | 3 | – | – | –
B2 | – | 127 ± 63 nM | 54 ± 8.8 nM | ≤ 10 nM

— publication PMC12720783 (Protein Science : A Publication of the Protein Society, 2025)
